From EP4818204A1 (Nanjing Leads Biolabs Co., Ltd., dated 2026)
Where two headings read alike, the source gives them in different places. Blank lines part the entries; values can stand above or below the molecule they belong to.

How the values were obtained:
human BMP2 protein [1] = biological target: T1, human BMP2 protein (human, UniProt P12643 283-396); experiment: ELISA, coated protein, antibody at 4 µg/mL
T1 construct: Bought

human Activin A protein [2] = biological target: T2, human Activin A protein (human, UniProt P08476 311-426); experiment: ELISA, coated protein, antibody at 4 µg/mL
T2 construct: Bought; Activin A is by nature a dimer of inhibin beta A chains
T2 sequence (looked up): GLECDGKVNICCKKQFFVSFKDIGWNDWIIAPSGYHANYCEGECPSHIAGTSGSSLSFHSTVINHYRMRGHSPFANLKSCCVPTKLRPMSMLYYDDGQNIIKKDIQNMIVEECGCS

human Activin B protein [3] = biological target: T3, human Activin B protein (human, UniProt P09529 293-407); experiment: ELISA, coated protein, antibody at 4 µg/mL
T3 construct: Bought; Activin B is by nature a dimer of inhibin beta B chains
T3 sequence (looked up): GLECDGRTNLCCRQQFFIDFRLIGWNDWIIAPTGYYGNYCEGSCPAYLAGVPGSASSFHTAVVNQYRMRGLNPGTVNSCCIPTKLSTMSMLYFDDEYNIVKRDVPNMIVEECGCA

human GFRα1 protein [4] = biological target: T4, human GFRα1 protein (human, UniProt P56159 25-429, limits assumed); experiment: ELISA, coated protein, antibody at 4 µg/mL
T4 construct: Bought
T4 sequence (looked up): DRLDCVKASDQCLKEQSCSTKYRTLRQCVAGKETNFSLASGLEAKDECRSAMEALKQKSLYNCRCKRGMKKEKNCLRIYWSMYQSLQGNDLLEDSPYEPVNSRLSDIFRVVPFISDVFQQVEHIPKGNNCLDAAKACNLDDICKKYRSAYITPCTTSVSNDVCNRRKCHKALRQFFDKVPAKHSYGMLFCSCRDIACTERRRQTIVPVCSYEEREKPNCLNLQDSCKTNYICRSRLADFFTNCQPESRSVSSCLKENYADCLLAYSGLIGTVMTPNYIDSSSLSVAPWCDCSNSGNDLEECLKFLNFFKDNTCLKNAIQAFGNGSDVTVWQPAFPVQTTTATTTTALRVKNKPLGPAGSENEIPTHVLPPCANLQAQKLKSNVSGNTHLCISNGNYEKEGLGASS

Human GDF15 protein = biological target: T5, Human GDF15 protein (human, UniProt Q99988 197-308); experiment: ELISA, coated protein, antibody at 4 µg/mL
T5 construct: Natural GDF15 is said to be a disulfide-linked homodimer; also called Human-GDF15-his
T5 sequence: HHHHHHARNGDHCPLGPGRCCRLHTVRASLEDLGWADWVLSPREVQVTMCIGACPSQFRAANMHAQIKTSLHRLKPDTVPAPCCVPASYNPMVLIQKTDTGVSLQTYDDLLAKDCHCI

human BMP2 protein [5] = biological target: T1, human BMP2 protein; experiment: ELISA, coated protein, antibody at 4 µg/mL; remark: listed apart in the source
human Activin A protein [6] = biological target: T2, human Activin A protein; experiment: ELISA, coated protein, antibody at 4 µg/mL; remark: listed apart in the source
human TGFβ1 protein [7] = biological target: T6, human TGFβ1 protein (human, UniProt P01137 279-390); experiment: ELISA, coated protein, antibody at 4 µg/mL
T6 construct: Bought

human GDF3 protein [8] = biological target: T7, human GDF3 protein (human, UniProt Q9NR23 251-364, limits assumed); experiment: ELISA, coated protein, antibody at 4 µg/mL
T7 construct: Bought
T7 sequence (looked up): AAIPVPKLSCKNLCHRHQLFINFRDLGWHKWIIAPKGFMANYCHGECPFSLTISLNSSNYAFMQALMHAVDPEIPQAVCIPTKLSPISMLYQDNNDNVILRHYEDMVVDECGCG

human BMP4 protein [9] = biological target: T8, human BMP4 protein (human, UniProt P12644 293-408); experiment: ELISA, coated protein, antibody at 4 µg/mL
T8 construct: Bought
T8 sequence (looked up): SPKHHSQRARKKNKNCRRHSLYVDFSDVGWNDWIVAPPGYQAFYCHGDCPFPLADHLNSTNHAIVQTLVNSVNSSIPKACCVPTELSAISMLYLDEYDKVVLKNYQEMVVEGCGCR

[10] = biological target: human GDF8 protein (human) (UniProt O14793); experiment: ELISA, coated protein, antibody at 4 µg/mL
human GDF11 protein [11] = biological target: T9, human GDF11 protein (human, UniProt O95390 299-407); experiment: ELISA, coated protein, antibody at 4 µg/mL
T9 construct: Bought
T9 sequence (looked up): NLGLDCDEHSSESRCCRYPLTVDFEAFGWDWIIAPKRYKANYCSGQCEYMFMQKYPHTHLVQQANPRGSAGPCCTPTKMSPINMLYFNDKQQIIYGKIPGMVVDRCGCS

human Activin B protein [12] = biological target: T3, human Activin B protein; experiment: ELISA, coated protein, antibody at 4 µg/mL; remark: listed apart in the source
human GDF2 protein [13] = biological target: T10, human GDF2 protein (human, UniProt Q9UK05 320-429); experiment: ELISA, coated protein, antibody at 4 µg/mL
T10 construct: Bought
T10 sequence (looked up): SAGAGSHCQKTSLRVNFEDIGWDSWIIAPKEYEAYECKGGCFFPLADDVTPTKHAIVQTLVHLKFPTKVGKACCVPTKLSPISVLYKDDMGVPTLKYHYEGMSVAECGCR

[14] = biological target: human AMH protein (human) (UniProt P03971); experiment: ELISA, coated protein, antibody at 4 µg/mL
human GDNF protein = biological target: T11, human GDNF protein (human, UniProt P39905 78-211); experiment: ELISA, coated protein, antibody at 4 µg/mL
T11 construct: Bought
T11 sequence (looked up): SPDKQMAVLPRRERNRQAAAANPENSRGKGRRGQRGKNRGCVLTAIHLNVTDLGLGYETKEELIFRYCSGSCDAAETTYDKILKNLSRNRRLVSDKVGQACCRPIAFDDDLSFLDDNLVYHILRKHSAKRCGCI

human GDF1 protein [15] = biological target: T12, human GDF1 protein (human, UniProt P27539 254-372, limits assumed); experiment: ELISA, coated protein, antibody at 4 µg/mL
T12 construct: Bought
T12 sequence (looked up): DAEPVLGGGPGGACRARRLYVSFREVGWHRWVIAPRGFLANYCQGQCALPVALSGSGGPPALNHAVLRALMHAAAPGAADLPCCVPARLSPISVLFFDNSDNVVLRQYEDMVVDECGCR

human GFRα1 protein [16] = biological target: T4, human GFRα1 protein; experiment: ELISA, coated protein
human BMP2 protein [17] = biological target: T1, human BMP2 protein; experiment: ELISA, coated protein
human Activin A protein [18] = biological target: T2, human Activin A protein; experiment: ELISA, coated protein
human TGFβ1 protein [19] = biological target: T6, human TGFβ1 protein; experiment: ELISA, coated protein
human GDF3 protein [20] = biological target: T7, human GDF3 protein; experiment: ELISA, coated protein
human BMP4 protein [21] = biological target: T8, human BMP4 protein; experiment: ELISA, coated protein
human GDF11 protein [22] = biological target: T9, human GDF11 protein; experiment: ELISA, coated protein
human Activin B protein [23] = biological target: T3, human Activin B protein; experiment: ELISA, coated protein
human GDF2 protein [24] = biological target: T10, human GDF2 protein; experiment: ELISA, coated protein
human GDF1 protein [25] = biological target: T12, human GDF1 protein; experiment: ELISA, coated protein
human FcRn protein = biological target: T13, human FcRn protein (human, UniProt P55899 24-297); experiment: BLI (Octet RED96e), FcRn on SA sensor, antibody as analyte, binding and dissociation at pH 6.0, 1:1 model
T13 construct: Bought, loaded on a streptavidin (SA) sensor; FcRn is by nature a heterodimer with beta-2-microglobulin

human GFRα1 protein [26] = biological target: T4, human GFRα1 protein; experiment: ELISA, coated protein, antibody at 4 µg/mL; remark: listed apart in the source
human BMP2 protein [27] = biological target: T1, human BMP2 protein; experiment: ELISA, coated protein, antibody at 4 µg/mL; remark: listed apart in the source
human Activin A protein [28] = biological target: T2, human Activin A protein; experiment: ELISA, coated protein, antibody at 4 µg/mL; remark: listed apart in the source
human TGFβ1 protein [29] = biological target: T6, human TGFβ1 protein; experiment: ELISA, coated protein, antibody at 4 µg/mL; remark: listed apart in the source
human GDF3 protein [30] = biological target: T7, human GDF3 protein; experiment: ELISA, coated protein, antibody at 4 µg/mL; remark: listed apart in the source
human BMP4 protein [31] = biological target: T8, human BMP4 protein; experiment: ELISA, coated protein, antibody at 4 µg/mL; remark: listed apart in the source
human GDF11 protein [32] = biological target: T9, human GDF11 protein; experiment: ELISA, coated protein, antibody at 4 µg/mL; remark: listed apart in the source
human Activin B protein [33] = biological target: T3, human Activin B protein; experiment: ELISA, coated protein, antibody at 4 µg/mL; remark: listed apart in the source
human GDF2 protein [34] = biological target: T10, human GDF2 protein; experiment: ELISA, coated protein, antibody at 4 µg/mL; remark: listed apart in the source
human GDF1 protein [35] = biological target: T12, human GDF1 protein; experiment: ELISA, coated protein, antibody at 4 µg/mL; remark: listed apart in the source

T6 sequence (P01137 279-390 limits assumed): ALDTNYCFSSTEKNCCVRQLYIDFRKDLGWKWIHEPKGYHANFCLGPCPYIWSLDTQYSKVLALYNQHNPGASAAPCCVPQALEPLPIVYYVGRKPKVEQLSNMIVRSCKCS
T13 sequence (P55899 24-297 limits assumed, form in doubt): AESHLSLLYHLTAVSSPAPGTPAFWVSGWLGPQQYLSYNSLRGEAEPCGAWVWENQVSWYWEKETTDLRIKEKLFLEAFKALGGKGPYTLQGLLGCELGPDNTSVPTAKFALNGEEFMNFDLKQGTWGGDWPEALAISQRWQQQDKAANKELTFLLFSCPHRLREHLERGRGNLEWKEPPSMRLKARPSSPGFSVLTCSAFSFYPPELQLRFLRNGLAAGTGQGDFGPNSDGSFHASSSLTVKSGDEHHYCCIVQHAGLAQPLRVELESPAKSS
T1 sequence (P12643 283-396 limits assumed): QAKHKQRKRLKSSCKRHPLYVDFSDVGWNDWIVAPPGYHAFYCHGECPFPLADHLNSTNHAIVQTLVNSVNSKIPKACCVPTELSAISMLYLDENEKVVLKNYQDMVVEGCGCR

OD value (OD 450 nm-620 nm) (human BMP2 protein [1]): 0.265
OD value (OD 450 nm-620 nm) (human Activin A protein [2]): 0.0698
OD value (OD 450 nm-620 nm) (human Activin B protein [3]): 0.187
OD value (OD 450 nm-620 nm) (human GFRα1 protein [4]): 0.124
OD value (OD 450 nm-620 nm) (Human GDF15 protein): 3.33
OD value (OD 450 nm-620 nm) (human BMP2 protein [5]): 0.227
OD value (OD 450 nm-620 nm) (human Activin A protein [6]): 0.0863
OD value (OD 450 nm-620 nm) (human TGFβ1 protein [7]): 0.129
OD value (OD 450 nm-620 nm) (human GDF3 protein [8]): 0.0676
OD value (OD 450 nm-620 nm) (human BMP4 protein [9]): 0.0639
OD value (OD 450 nm-620 nm) [10]: 0.0755
OD value (OD 450 nm-620 nm) (human GDF11 protein [11]): 0.0375
OD value (OD 450 nm-620 nm) (human Activin B protein [12]): 0.156
OD value (OD 450 nm-620 nm) (human GDF2 protein [13]): 0.555
OD value (OD 450 nm-620 nm) [14]: 0.0754
OD value (OD 450 nm-620 nm) (human GDNF protein): 1.21
OD value (OD 450 nm-620 nm) (human GDF1 protein [15]): 0.0818
Molecule: Ponsegromab (antibody)

OD value (OD 450 nm-620 nm) (Human GDF15 protein): 2.39
OD value (OD 450 nm-620 nm) [10]: 0.0508
OD value (OD 450 nm-620 nm) [14]: 0.0409
OD value (OD 450 nm-620 nm) (human GDNF protein): 0.296
binding result (human GFRα1 protein [16]): no binding (tested: 4 µg/mL)
binding result (human BMP2 protein [17]): no binding (tested: 4 µg/mL)
binding result (human Activin A protein [18]): no binding (tested: 4 µg/mL)
binding result (human TGFβ1 protein [19]): no binding (tested: 4 µg/mL)
binding result (human GDF3 protein [20]): no binding (tested: 4 µg/mL)
binding result (human BMP4 protein [21]): no binding (tested: 4 µg/mL)
binding result (human GDF11 protein [22]): no binding (tested: 4 µg/mL)
binding result (human Activin B protein [23]): no binding (tested: 4 µg/mL)
binding result (human GDF2 protein [24]): no binding (tested: 4 µg/mL)
binding result (human GDF1 protein [25]): no binding (tested: 4 µg/mL)
Kd (human FcRn protein): 2.89 nM
koff (human FcRn protein): 0.00257 s⁻¹
kon (human FcRn protein): 889000 M⁻¹ s⁻¹
OD value (human GFRα1 protein [26]): 0.132 OD 450 nm-620 nm
OD value (human BMP2 protein [27]): 0.0973 OD 450 nm-620 nm
OD value (human Activin A protein [28]): 0.0582 OD 450 nm-620 nm
OD value (human TGFβ1 protein [29]): 0.114 OD 450 nm-620 nm
OD value (human GDF3 protein [30]): 0.0907 OD 450 nm-620 nm
OD value (human BMP4 protein [31]): 0.0595 OD 450 nm-620 nm
OD value (human GDF11 protein [32]): 0.0709 OD 450 nm-620 nm
OD value (human Activin B protein [33]): 0.114 OD 450 nm-620 nm
OD value (human GDF2 protein [34]): 0.0643 OD 450 nm-620 nm
OD value (human GDF1 protein [35]): 0.144 OD 450 nm-620 nm
B1: hu19C4C7-YTE (antibody, human IgG1, kappa)
heavy: QVQLVQSGAEVKKPGSSVKVSCKASGYSFTGYIMNWVRQAPGQSLEWMGDIDPYYGGPNYNQKFQGRVTITVDKSTSTAYMELSSLRSEDTAVYYCSRRDYNYGSFAYWGQGTLVTVSSASTKGPSVFPLAPSSKSTSGGTAALGCLVKDYFPEPVTVSWNSGALTSGVHTFPAVLQSSGLYSLSSVVTVPSSSLGTQTYICNVNHKPSNTKVDKKVEPKSCDKTHTCPPCPAPEAAGAPSVFLFPPKPKDTLYITREPEVTCVVVDVSHEDPEVKFNWYVDGVEVHNAKTKPREEQYNSTYRVVSVLTVLHQDWLNGKEYKCKVSNKALPAPIEKTISKAKGQPREPQVYTLPPSREEMTKNQVSLTCLVKGFYPSDIAVEWESNGQPENNYKTTPPVLDSDGSFFLYSKLTVDKSRWQQGNVFSCSVMHEALHNHYTQKSLSLSPGK
light: QIVLTQSPATLSLSPGERATLSCRASSSVNYMHWYQQKPGQAPRPLIYATSNLATGIPARFSGSGSGTDYTLTISSLEPEDFAVYYCQQWSDNPPTFGQGTKLEIKRTVAAPSVFIFPPSDEQLKSGTASVVCLLNNFYPREAKVQWKVDNALQSGNSQESVTEQDSKDSTYSLSSTLTLSKADYEKHKVYACEVTHQGLSSPVTKSFNRGEC
notes: Hu19C4C7 with human IgG1 constant region carrying L234A, L235A, G237A, M252Y, S254T, T256E (EU numbering); also called hu19C4C7-YTE-IgG1-mut
